This note sets out measurements from the RNAGym collection of RNA variant scans (doi:10.7554/elife.80360).

B1: Hairpin Ribozyme (parent)
chain: GUCCUCUUUCACGUGCGCGUGAAAGAGAGAAGUGAACCAGAGAAACACACGUUGUGGUAUAUUACCUGGUA

This series covers variants of B1. Put plainly: self-cleavage, relative activity (ratio to wild type); higher = more cleavage; co-transcriptional.
As for U33C U70A, the self-cleavage was 0.0822.

U33G U58A: the self-cleavage was found to be 0.0636.

Take A11U G68U: the self-cleavage was 0.292.

On to U14G A31U, for which the self-cleavage came to 0.119.

For A36U C65U, the self-cleavage was found to be 0.113.

With C12U U58C, the self-cleavage stood at 1.

With C65U G69U, the self-cleavage was determined as 0.279.

Turning to U8C A23C, the self-cleavage worked out at 0.68.

Regarding A23U A43G, the self-cleavage came to 0.204.

On to A22U A31G, for which the self-cleavage turned out to be 0.589.

Regarding C16U A61U, the self-cleavage is 0.256.

On to A35U A43G, for which the self-cleavage stood at 0.0794.

For G13A A28C, the self-cleavage turned out to be 0.258.

With A31C C65A, the self-cleavage was 0.0267.

Turning to C65G C66U, the self-cleavage is 0.429.

For the variant U7A G40A, the self-cleavage turned out to be 0.313.

Consider C4G U8G, for which the self-cleavage came out at 0.0927.

G32U G51A: the self-cleavage turned out to be 0.179.

For G1C C12U, the self-cleavage stood at 0.213.

Consider G34U A59G, for which the self-cleavage was found to be 0.23.

As to G1A A11U, the self-cleavage came to 0.302.

In the case of A44G A61U, the self-cleavage stood at 0.189.

With G21C A36G, the self-cleavage is 0.779.

As for A47G U62G, the self-cleavage is 0.0586.

A31C C37A: the self-cleavage was 0.0507.

Regarding G29C U33C, the self-cleavage worked out at 0.224.

In the case of A49U C50U, the self-cleavage came out at 0.139.

As to G1U U2A, the self-cleavage is 0.11.

Take C48G U67G: the self-cleavage was determined as 0.113.

Turning to C18A C48U, the self-cleavage came out at 0.214.

As to G29U U67C, the self-cleavage is 0.101.

In the case of U9A C46A, the self-cleavage came to 0.0884.

Turning to G27A A43G, the self-cleavage stood at 0.0988.

Turning to G19C G56A, the self-cleavage is 0.101.

For G13A A59U, the self-cleavage is 0.241.

With A49C A64G, the self-cleavage was 0.0856.

In the case of C4U A36C, the self-cleavage amounted to 0.145.

On to A24U G40A, for which the self-cleavage is 0.281.

For the variant C6A U52G, the self-cleavage turned out to be 0.547.

G17C G25C: the self-cleavage was 0.3.

Regarding U60C C66U, the self-cleavage stood at 0.451.

For the variant U20C C38G, the self-cleavage was determined as 0.154.

In the case of A11C A44U, the self-cleavage came to 0.155.

Turning to G29U A71C, the self-cleavage is 0.152.

Take U52A U70G: the self-cleavage was 0.86.

As to G19A A30C, the self-cleavage was found to be 0.146.

Take G17A U53A: the self-cleavage was 1.36.

In the case of U5C A44G, the self-cleavage was determined as 0.147.

For the variant G19A A39G, the self-cleavage is 0.274.

As for C6A G15U, the self-cleavage was determined as 0.582.

Consider A11U C18G, for which the self-cleavage worked out at 0.812.

For A24U C38U, the self-cleavage worked out at 0.471.

Regarding A11G G57A, the self-cleavage is 0.159.

As for A22G A45U, the self-cleavage came out at 0.268.

For C37G A45C, the self-cleavage was 0.112.

As for U5G C66U, the self-cleavage is 0.223.

For the variant A35U G68A, the self-cleavage was found to be 0.29.

Regarding C18U A47C, the self-cleavage came out at 0.474.

On to U8C C38G, for which the self-cleavage amounted to 0.154.

For U60G U63G, the self-cleavage was 0.0801.

On to U7C C66G, for which the self-cleavage was 0.0988.

In the case of U9A G15U, the self-cleavage came to 0.864.

On to A31G U60A, for which the self-cleavage came to 0.677.

As to G13U A31U, the self-cleavage is 0.109.

A43U U53A: the self-cleavage amounted to 0.206.

Consider A11U G27C, for which the self-cleavage was 0.184.

With C3U A61U, the self-cleavage was found to be 0.227.

In the case of A35U C65A, the self-cleavage was determined as 0.625.

Turning to C10U A45G, the self-cleavage was 0.0999.

As for C3G G15U, the self-cleavage amounted to 0.29.

As to U5C C66A, the self-cleavage was 0.143.

Regarding A11G G42C, the self-cleavage was 0.322.

As for G19U A59U, the self-cleavage is 0.213.

Turning to C50U G54U, the self-cleavage came out at 0.905.

Take C38A A44C: the self-cleavage was 0.108.

Consider C10G A49U, for which the self-cleavage stood at 0.21.

Regarding C50U A59G, the self-cleavage is 0.204.

On to U14C U53C, for which the self-cleavage worked out at 0.675.

Consider A36G C38U, for which the self-cleavage was 0.523.

On to G34A U63A, for which the self-cleavage is 0.259.

For G13C C48G, the self-cleavage is 0.102.

For the variant A47C G57A, the self-cleavage came out at 0.225.

With U20A A71C, the self-cleavage amounted to 1.15.

As for G21U U67C, the self-cleavage was 0.23.

In the case of A24C C37G, the self-cleavage worked out at 0.242.

On to U33G C38U, for which the self-cleavage came to 0.204.

For G29A C48A, the self-cleavage is 0.131.

A11G A61G: the self-cleavage amounted to 0.166.

A43C U63C: the self-cleavage worked out at 0.157.

In the case of A23C A43U, the self-cleavage is 0.115.

As to C48G, the self-cleavage was found to be 0.153.

G29A A31U: the self-cleavage stood at 0.178.

As for G17C A64U, the self-cleavage came out at 0.176.

As to C50U G51U, the self-cleavage came out at 0.424.

As to G32C U62G, the self-cleavage is 0.0745.

In the case of C6A G42U, the self-cleavage was 0.223.

In the case of U5G G19U, the self-cleavage amounted to 0.274.

For A47G C48G, the self-cleavage was 0.121.

As to G25A U52G, the self-cleavage came to 0.61.

With G19U U20A, the self-cleavage turned out to be 0.825.

Take A23G G68C: the self-cleavage was 0.101.

With G15A G34U, the self-cleavage was 1.26.

As for A30U U33A, the self-cleavage was 0.0677.

With A49C G69A, the self-cleavage worked out at 0.139.

With G57A A71U, the self-cleavage is 0.187.

For the variant G32A U53C, the self-cleavage amounted to 0.243.

For G32A U53G, the self-cleavage was 0.146.

U7G A23G: the self-cleavage is 0.752.

Turning to G13C U67G, the self-cleavage worked out at 0.281.

For U14G A26G, the self-cleavage came to 0.781.

Take G21U G27C: the self-cleavage was 0.172.

With G25C G40C, the self-cleavage worked out at 0.102.

For the variant U63G U67C, the self-cleavage is 0.149.

On to U8G G21C, for which the self-cleavage came out at 0.401.

For the variant G15A C46G, the self-cleavage was 0.0897.

Regarding G19U G34U, the self-cleavage came out at 1.3.

As to A41C U63G, the self-cleavage was 0.102.

Take G25U C50U: the self-cleavage was determined as 0.287.

Regarding U60G C66A, the self-cleavage was 0.0537.

As to G56A A59U, the self-cleavage is 0.125.

In the case of C3A G29A, the self-cleavage came out at 0.112.

C10G A64U: the self-cleavage is 0.199.

G40A U67C: the self-cleavage stood at 0.121.

As for G25C A64C, the self-cleavage stood at 0.0865.

Take A26U A35G: the self-cleavage worked out at 0.786.

In the case of U5G G57C, the self-cleavage came out at 0.0591.

As for A64C C65A, the self-cleavage is 0.186.

For the variant A28G A39U, the self-cleavage was determined as 0.536.

Turning to G21U A23C, the self-cleavage is 0.595.

With U8A C18U, the self-cleavage was 0.779.

In the case of A23C G54C, the self-cleavage worked out at 0.337.

On to A31C G34U, for which the self-cleavage is 0.0576.

For the variant A26U G29U, the self-cleavage was determined as 0.151.

For the variant U58A U67C, the self-cleavage stood at 0.118.

For the variant C16G A39C, the self-cleavage came to 0.374.

In the case of U20A A35C, the self-cleavage is 0.967.

Turning to G32U A47G, the self-cleavage worked out at 0.0761.

For the variant G15U A31G, the self-cleavage was determined as 0.795.

As for C6A U20C, the self-cleavage came out at 0.556.

As for A24U G51U, the self-cleavage came to 0.78.

As for A41C G54C, the self-cleavage was found to be 0.676.

As for G1C A61G, the self-cleavage turned out to be 0.202.

On to C65U U67G, for which the self-cleavage came to 0.229.

As for C16A G17A, the self-cleavage is 1.02.

U9G C12U: the self-cleavage was determined as 0.664.

Take C4G A47C: the self-cleavage is 0.13.

Take C38U A45G: the self-cleavage was 0.197.

Take G1U G15C: the self-cleavage turned out to be 0.0726.

In the case of A39U G57A, the self-cleavage stood at 0.155.

Take G57U U67G: the self-cleavage was determined as 0.152.

As for A31G U67A, the self-cleavage is 0.0798.

On to C37U C46U, for which the self-cleavage came out at 0.198.

Regarding C10U A36U, the self-cleavage turned out to be 0.487.

Turning to U5A C38G, the self-cleavage came to 0.0942.

On to A59G C66A, for which the self-cleavage turned out to be 0.228.

Take U14G A35U: the self-cleavage was determined as 0.49.

Take C18U A23G: the self-cleavage is 0.857.

As for G25U A71C, the self-cleavage was 1.08.

U9C A30G: the self-cleavage was determined as 0.336.

Consider C6G U58C, for which the self-cleavage was 0.484.

As for A35G G69A, the self-cleavage was found to be 0.204.

As to A26C C66A, the self-cleavage stood at 0.34.

Regarding A49G G57U, the self-cleavage was 0.22.

Regarding U14A A23C, the self-cleavage was determined as 0.789.

With U8A U20A, the self-cleavage came out at 0.479.

Consider U9A G17A, for which the self-cleavage is 0.695.

Turning to G42C G68A, the self-cleavage stood at 0.119.
